Test results taken from the RNAGym collection of RNA variant scans (doi:10.7554/elife.90254).

B1: LINE1-full (parent)
chain: UACGUAGGUGGUUUUCCCCUGAUAGUGCUAAGGGGGCCUGGAAGUUUGGACUGGGCAGAGCUCAACACAGCGUGGCAAAGUGGCUGUGGCUAGACUGCCUCUCUGGAUUCCUCGUCACUCAGCAGGGCAUCUCUGAGAGAAAUGCC

Variants of: B1
Experiment: self-cleavage, relative activity (ratio to wild type); higher = more cleavage; in vitro, sequencing; the parent is a self-cleaving ribozyme
With U45G U119G the self-cleavage was 0.44.
In the case of A94C U115A, the self-cleavage is reported as 0.1.
Variant U13C G25U has a self-cleavage of 1.52.
With A69G U73C the self-cleavage was 0.59.
G75A G105U showed a self-cleavage of 0.67.
Variant U39C G144A has a self-cleavage of 0.85.
With A67G A94G the self-cleavage was 0.09.
Variant G7A U23A has a self-cleavage of 0.85.
With A121U A138G the self-cleavage was 1.56.
G34C A140U showed a self-cleavage of 1.31.
U46C U102A gave a self-cleavage of 1.09.
C38U A64U showed a self-cleavage of 0.35.
Variant U15A U20G has a self-cleavage of 0.68.
In the case of U13C A107G, the self-cleavage is reported as 1.39.
In the case of A43G C116U, the self-cleavage is reported as 1.22.
With U20G U102C the self-cleavage was 1.73.
With A31G A79G the self-cleavage was 1.23.
G72A C120U showed a self-cleavage of 1.31.
U20G A129C gave a self-cleavage of 1.95.
G72U A138G gave a self-cleavage of 1.55.
Variant A50U A69C has a self-cleavage of 0.04.
With A77G U85G the self-cleavage was 0.2.
U81A U115A gave a self-cleavage of 2.46.
With U47A A140G the self-cleavage was 0.99.
U47C A65C gave a self-cleavage of 0.
With U52C U130C the self-cleavage was 1.84.
G10A U104C gave a self-cleavage of 0.37.
U39C A64G gave a self-cleavage of 0.24.
Variant A124G U134C has a self-cleavage of 0.89.
Work on U14C C145U yielded a self-cleavage of 1.41.
In the case of U115A G137A, the self-cleavage is reported as 1.81.
Work on U5C C84U yielded a self-cleavage of 0.18.
For G4A U62C, the self-cleavage was 0.
Variant C95U U102C has a self-cleavage of 0.14.
Variant A65U A92G has a self-cleavage of 0.03.
Variant U23C A43G has a self-cleavage of 1.11.
With G70A A92G the self-cleavage was 0.04.
U85G A142G showed a self-cleavage of 0.1.
For U62A U112C, the self-cleavage was 0.04.
For U132C A142C, the self-cleavage was 1.51.
U5C G41U showed a self-cleavage of 1.03.
Work on C99U U119A yielded a self-cleavage of 0.79.
In the case of C3G A78G, the self-cleavage is reported as 0.6.
With G36U A140G the self-cleavage was 1.18.
In the case of G82A A94U, the self-cleavage is reported as 0.33.
In the case of U130G A140G, the self-cleavage is reported as 1.1.
For U47C A64U, the self-cleavage was 0.52.
With U15C U104C the self-cleavage was 1.86.
For U14C U81A, the self-cleavage was 1.34.
In the case of C37U A57U, the self-cleavage is reported as 0.05.
With U39A A136U the self-cleavage was 1.52.
With U62C A141G the self-cleavage was 0.03.
In the case of U26A A79G, the self-cleavage is reported as 0.75.
Work on U46C A78U yielded a self-cleavage of 1.85.
G32A G34A gave a self-cleavage of 0.73.
Work on C37U C123U yielded a self-cleavage of 1.67.
Work on C19A U134C yielded a self-cleavage of 0.67.
A57C A121U gave a self-cleavage of 0.03.
For U62G A65U, the self-cleavage was 0.16.
Work on G25U A79G yielded a self-cleavage of 0.77.
Variant U73A U102C has a self-cleavage of 0.97.
With A117U G126C the self-cleavage was 1.47.
In the case of U46C U119A, the self-cleavage is reported as 1.26.
Work on U46C U119G yielded a self-cleavage of 1.02.
For A22G G125A, the self-cleavage was 1.9.
Variant C113U C131G has a self-cleavage of 1.32.
With U20C A142C the self-cleavage was 1.88.
Work on U46A A140G yielded a self-cleavage of 0.9.
C19U G72C showed a self-cleavage of 1.31.
Variant U85G A124G has a self-cleavage of 0.32.
Work on A67G U91C yielded a self-cleavage of 0.16.
Variant U91C G106A has a self-cleavage of 0.95.
U134C G139A showed a self-cleavage of 1.29.
U5A U132C showed a self-cleavage of 1.25.
Variant U96A A138U has a self-cleavage of 0.1.
Variant G60A U143C has a self-cleavage of 0.
A50G U73C showed a self-cleavage of 1.31.
In the case of U26A A64G, the self-cleavage is reported as 0.2.
C37U A79G showed a self-cleavage of 1.1.
Variant U23C A69G has a self-cleavage of 1.2.
For G86U A124G, the self-cleavage was 0.07.
Work on U96A A121U yielded a self-cleavage of 0.05.
With U23A U100C the self-cleavage was 1.26.
